In the experiment the target is 人CD64 ECD-his抗原(SINO BIOLOGICAL，货号:10256-H08H) (human) (UniProt P12314). Put plainly: ELISA, antibody coated at 67 to 0.0043 nM, CD64 ECD-his at 1 μg/mL. (In an ELISA, binding on a coated surface is turned into a signal by an enzyme label.)

EC50 data for one substance are collected here from patent publication CN112646041A.

What is called EC50 is the concentration giving half of the maximal effect. The substance hIgG1对照组(SIGMA，货号I4506) (antibody) had an EC50 of 1.32 nM.
